Measurements: the supplement of paper PMC11196671

Assays:
[1] = PET hydrolysis product formed (TPA+MHET+BHET, UV-Vis) per mg enzyme (mmol/mg enzyme); higher = more PET depolymerisation activity; extreme values may be limits of the assay; settings: 2 h
Experimental: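 Purified PET hydrolases (His-SUMO cleaved, E. coli C41(DE3) small-scale expression), 2.5 ug enzyme on 3.5 mg amorphous PET film (aFilm) or crystalline PET powder (cryPow) in 0.5 mL of 50 mM buffer (NaCitrate pH 4.5/5.5, NaPhosphate 6.5/7.5, glycine 8.5/9.5) at 60 or 70 C with shaking for 2 h. Soluble aromatic products (TPA+MHET+BHET) were quantified by UV-Vis at 260/280 nm, blank-subtracted against the no-enzyme control, and normalised per mg enzyme; duplicate reactions.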

[2] = MHET released, HPLC; higher = more MHET released; extreme values may be limits of the assay; settings: 24 h
Experimental: (§1)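 Purified PET hydrolases, 2.5 ug enzyme on 3.5 mg amorphous PET film (aFilm) or crystalline PET powder (cryPow) in 0.5 mL of 50 mM buffer (NaCitrate pH 4.5/5.5, NaPhosphate 6.5/7.5, glycine 8.5/9.5) at 60 or 70 C with shaking for 24 h. Total aromatic product by UV-Vis (260/280 nm, blank-subtracted, normalised per mg enzyme) and individual TPA, MHET, BHET concentrations by UHPLC-DAD at 240 nm; duplicate reactions.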

[3] = BHET released, HPLC; higher = more BHET released; extreme values may be limits of the assay; settings: 24 h
Experimental: as §1

[4] = PET hydrolysis product formed (TPA+MHET+BHET, UV-Vis) per mg enzyme (mmol/mg enzyme); higher = more PET depolymerisation activity; extreme values may be limits of the assay; settings: 24 h
Experimental: as §1

QTNPYARGPDPTAASLEASAGPFTVRSFTVSRPSGYGAGTVYYPTNAGGTVGAIAIVPGYTARQSSIKWWGPRLASHGFVVITIDTNSTLDQPESRSSQQMAALEQVASLNGTSSSPIYGKVDTARMGVMGWSMGGGGSLISACNNPSLKAAVVQAPWHSSTNFSCVTVPTLIFACENDSIAPVNSSALPIYDSMSENAKQFLEICGGSHSCANTGNSDQALIGKKGVAWMKRFMDNDTRYSTFACENPNSTRVCDFRTANCS [Z1-PETase]
Settings	BHET released, [3] [mM]	MHET released, [2] [mM]	PET hydrolysis product formed, [1]	PET hydrolysis product formed, [4]
PET substrate: aFilm, 60 °C, pH 4.5	0	0	0	0
PET substrate: aFilm, 60 °C, pH 5.5	0	0	0	0.00483
PET substrate: aFilm, 60 °C, pH 6.5	0	0.321	0	0.113
PET substrate: aFilm, 60 °C, pH 7.5	0	1.88	0.032	0.617
PET substrate: aFilm, 60 °C, pH 8.5	0	0.249	0.03625	0.103
PET substrate: aFilm, 60 °C, pH 9.5	0	1.03	0.0733	0.517
PET substrate: aFilm, 70 °C, pH 4.5	0	0	0	0
PET substrate: aFilm, 70 °C, pH 5.5	0	0	0	0
PET substrate: aFilm, 70 °C, pH 6.5	0	0	0	0
PET substrate: aFilm, 70 °C, pH 7.5	0	0.0119	0	0.00464
PET substrate: aFilm, 70 °C, pH 8.5	0	0.00565	0	0
PET substrate: aFilm, 70 °C, pH 9.5	0	0	0.00338	0.00672
PET substrate: cryPow, 60 °C, pH 4.5	0	0	0	0
PET substrate: cryPow, 60 °C, pH 5.5	0	0.053	0	0.0183
PET substrate: cryPow, 60 °C, pH 6.5	0.00328	0.476	0.0995	0.126
PET substrate: cryPow, 60 °C, pH 7.5	0	0.522	0.135	0.152
PET substrate: cryPow, 60 °C, pH 8.5	0	0.343	0.102	0.117
PET substrate: cryPow, 60 °C, pH 9.5	0	0.071	0.13	0.134
PET substrate: cryPow, 70 °C, pH 4.5	0	0	0	0
PET substrate: cryPow, 70 °C, pH 5.5	0	0	0	0
PET substrate: cryPow, 70 °C, pH 6.5	0	0.125	0.0288	0.0331
PET substrate: cryPow, 70 °C, pH 7.5	0	0.181	0.0688	0.0691
PET substrate: cryPow, 70 °C, pH 8.5	0	0.123	0.0583	0.0403
PET substrate: cryPow, 70 °C, pH 9.5	0	0.0142	0.0657	0.0592
